Measurements: patent publication EP0842948B1 (MOCHIDA PHARMACEUTICAL CO., LTD., dated 2009)
Where “and” joins values, the source holds several entries; their conditions need not be identical. Identical values can stand only once.

Key:
[1] = molecular target: T1, human Fas ligand expressed on 1A12 cells (human, UniProt P48023 1-281); assay: competitive binding against 125I-labelled mouse F919 on 1A12 cells
T1 construct: whole, on cells; also called Fas ligand antigen on 1A12 transfectant cells
T1 sequence (looked up): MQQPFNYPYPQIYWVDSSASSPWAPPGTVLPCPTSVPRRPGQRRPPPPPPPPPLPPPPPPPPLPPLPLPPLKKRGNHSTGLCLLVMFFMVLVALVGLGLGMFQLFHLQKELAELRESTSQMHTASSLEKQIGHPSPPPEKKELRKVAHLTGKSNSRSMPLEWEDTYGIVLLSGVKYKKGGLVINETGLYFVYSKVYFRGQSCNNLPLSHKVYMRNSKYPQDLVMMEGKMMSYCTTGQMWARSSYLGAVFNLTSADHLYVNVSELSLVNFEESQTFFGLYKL

[2] = molecular target: extracellular domain of the Fas ligand derived from COS-1 cell (human); assay: cell-based or functional assay

B1: mouse monoclonal antibody F919-9-18 (antibody, V domains shown)
VH: QIQLVQSGPELKKPGETVKISCKASGYTFTEYPMHWVKQAPGKGFKWMGMIYTDTGEPSYAEEFKGRFAFSLETSASTAYLQINFLKNEDTATYFCVRFYWDYFDYWGQGTTLTVSS
VL: DIQMTQTTSSLSASLGDRVTISCRASQDISNYLNWYQQKPDGTVKLLIYYTSRLHSGVPSRFSGSGSGTNYSLTISNLEQGDIATYFCQQGSTLPWTFGGGTKLEIK
For B1, which Ka [1] is on record?
The Ka was 3e+08 M⁻¹ and 4e+08 M⁻¹.

What about the apoptosis-suppression activity (fold against F883-1-1) [2] of the same binder?
Its apoptosis-suppression activity (fold against F883-1-1) is 100.
